Experimental data published in patent publication US20240407381A1, “FOOD COMPOSITIONS COMPRISING RECOMBINANT CELLS COMPRISING TRANSCOBALAMIN” (IMAGINDAIRY LTD., priority 2021, published 2024).

Assay: biochemical tests of B12 binding
Settings: purified recombinant transcobalamin expressed in A. oryzae
Excerpt: The entire process was scalable to produce the protein in large batches. Afterwards, the inventors feedbacked the expression information (RNAseq) to the machine learning to create better constructs until reaching optimal transcobalamin expression.

B12 binding: effective B12 binding
B1: transcobalamin: recombinant bovine transcobalamin secreted from A. oryzae and purified from the harvested medium; TC2 expression confirmed (protein, UniProt Q9XSC9 19-432, looked up)
Transcobalamin-2: NICEITEVDSTLVERLGQRLLPWMDRLSQEQLNPSIYVGLRLSSLQAGAKEAHYLHSLKLSYQQSLLRPASNKDDNDSEAKPSMGQLALYLLALRANCEFIGGRKGDRLVSQLKRFLEDEKRAIGHNHQGHPRTSYYQYSLGILALCVHQKRVHDSVVGKLLYAVEHKPHLLQDHVSVDTMAMAGMAFSCLELSNLNPKQRNRINLALKRVQEKILKAQTPEGYFGNVYSTPLALQLLMGSLRPSVELGTACLKAKAALQASLQHKTFQNPLMISQLLPVLNQKSYVDLISPDCQAPRALLEPALETPPQAKVPKFIDVLLKVSGISPSYRHSVSVPAGSSLEDILKNAQEHGRFRFRTQASLSGPFLTSVLGRKAGEREFWQVLRDPDTPLQQGIADYRPKDGETIELRLVGW
